In US20030023055:

Assays:
[1] = biological target: PHAS-1
[2] = biological target: myelin basic protein
[3] = biological target: histone H1

B1: FLAG®-tagged Atr-2 protein (73 kDa Atr-2 truncated protein encoded by pCIneoFLAGATR2) (protein)
chain: MLVAELRRVTVLWDELWLGVLLQQHMYVLRRIQQLEDEVKRVQNNNTLRKEEKIAIMREKHTALMKPIVFALEHVRSITAAPAETPHEKWFQDNYGDAIENALEKLKTPLNPAKPGSSWIPFKEIMLSLQQRAQKRASYILRLEEISPWLAAMTNTEIALPGEVSARDTVTIHSVGGTITILPTKTKPKKLLFLGSDGKSYPYLFKGLEDLHLDERIMQFLSIVNTMFATINRQETPRFHARHYSVTPLGTRSGLIQWVDGATPLFGLYKRWQQREAALQAQKAQDSYQTPQNPGIVPRPSELYYSKIGPALKTVGLSLDVSRRDWPLHVMKAVLEELMEATPPNLLAKELWSSCTTPDEWWRVTQSYARSTAVMSMVGYIIGLGDRHLDNVLIDMTTGEVVHIDYNVCFEKGKSLRVPEKVPFRMTQNIETALGVTGVEGVFRLSCEQVLHIMRRGRETLLTLLEAFVYDPLVDWTAGGEAGFAGAVYGGGGQQAESKQSKREMEREITRSLFSSRVAEIKVNWFKNRDEMLVVLPKLDGSLDEYLSLQEQLTDVEKLQGKLLEEIEFLEGAEGVDHPSHTLQHRYSEHTQLQTQQRAVQEAIQVKLNEFEQWITHYQAAFNNLEATQLASLLQEISTQMDLGPPSYVPA
Question: With B1 as the protein, how does the “kinase activity (32P-ATP incorporation, P81 paper, Cerenkov radiation)” value (“kinase activity” below) [1] read?
Answer: Its value is “did not phosphorylate PHAS-1 or histone H1”.

Question: What about the “kinase activity” value [2] of the same protein?
Answer: The value was “able to phosphorylate the Atr-2 protein itself and the exogenous myelin basic protein substrate”.

Question: And the “kinase activity” value [3]?
Answer: The value was “did not phosphorylate PHAS-1 or histone H1”.

Question: What about the “kinase activity” value of the same protein?
Answer: The value was “able to phosphorylate the Atr-2 protein itself”.
